Data on two proteins can be found in patent publication US8524444.

Series [1] addresses T1, polypeptide 4.4, FITC(Aha)STPVSFANMK (S→F).
T1 chain: STPVSFANMK

For series [2], the target named is T2, polypeptide 4.1, FITC(Aha)STPVSSANMK (wt CK2-derived peptide).
T2 chain: STPVSSANMK

Series [3] deals with T3, polypeptide 4.5, FITC(Aha)STPVSRANMK (S→R).
T3 chain: STPVSRANMK

Series [4] has as its target T4, polypeptide 4.2, FITC(Aha)STPFSSANMK (V→F).
T4 chain: STPFSSANMK

Series [5] concerns the target T5, polypeptide 4.3, FITC(Aha)STPRSSANMK (V→R).
T5 chain: STPRSSANMK

In series [6] the target is T6, polypeptide 4.6, FITC(Aha)STPVSSANMK(DEAC), unglycosylated.
T6 chain: STPVSSANMK

For series [7], the target named is T7, polypeptide 4.8, FITC(Aha)STPVSRANMK(DEAC), unglycosylated.
T7 chain: STPVSRANMK

B1: O-Linked N-acetylglucosaminyltransferase (OGT) (protein)
chain: MHYKEAIRISPTFADAYSNMGNTLKEMQDVQGALQCYTRAIQINPAFADAHSNLASIHKDSGNIPEAIASYRTALKLKPDFPDAYCNLAHCLQIVCDWTDYDERMKKLVSIVADQLEKNRLPSVHPHHSMLYPLSHGFRKAIAERHGNLCLDKINVLHKPPYEHPKDLKLSDGRLRVGYVSSDFGNHPTSHLMQSIPGMHNPDKFEVFCYALSPDDGTNFRVKVMAEANHFIDLSQIPCNGKAADRIHQDGIHILVNMNGYTKGARNELFALRPAPIQAMWLGYPGTSGALFMDYIITDQETSPAEVAEQYSEKLAYMPHTFFIGDHANMFPHLKKKAVIDFKSNGHIYDNRIVLNGIDLKAFLDSLPDVKIVKMKCPDGGDNADSSNTALNMPVIPMNTIAEAVIEMINRGQIQITINGFSISNGLATTQINNKAATGEEVPRTIIVTTRSQYGLPEDAIVYCNFNQLYKIDPSTLQMWANILKRVPNSVLWLLRFPAVGEPNIQQYAQNMGLPQNRIIFSPVAPKEEHVRRGQLADVCLDTPLCNGHTTGMDVLWAGTPMVTMPGETLASRVAASQLTCLGCLELIAKNRQEYEDIAVKLGTDLEYLKKVRGKVWKQRISSPLFNTKQYTMELERLYLQMWEHYAAGNKPDHMIKPVEVTESA
B1: the Relative rate of glycosylation in series [1] amounted to 0.4; in series [2], 1; in series [3], 0.7; in series [4], 0.15; in series [5], 0.

B2: Proteinase K (protein)
chain: AAQTNAPWGLARISSTSPGTSTYYYDESAGQGSCVYVIDTGIEASHPEFEGRAQMVKTYYYSSRDGNGHGTHCAGTVGSRTYGVAKKTQLFGVKVLDDNGSGQYSTIIAGMDFVASDKNNRNCPKGVVASLSLGGGYSSSVNSAAARLQSSGVMVAVAAGNNNADARNYSPASEPSVCTVGASDRYDRRSSFSNYGSVLDIFGPGTSILSTWIGGSTRSISGTSMATPHVAGLAAYLMTLGKTTAASACRYIADTANKGDLSNIPFGTVNLLAYNNYQA
B2: the “rate of proteolysis, unglycosylated against glycosylated polypeptide” value in series [6] and in series [7] was “˜100-500 times faster” each time.
